± gives the standard deviation of the averaged measurements.
B1: library; a variant is named by its letters at N, in order (parent)
chain: GCUGUCACCGAGAAACUGUGAAGUAUAUCUUAAACCUGGGCACUUAAAAGAUAUAUGGAGUUAGUAGUGCAACCUGCUCGGUCUGAUGAGUCCNNNNNNGGACGAAACAGC

Columns and labels:
[1] = variants of: B1; assay: FACS-Seq fitted mean relative fluorescence mCherry/BFP without ligand (log10 relative fluorescence); HEK293T; ligand: cyclic di-GMP (c-di-GMP-II aptamer); higher = higher reporter protein expression; settings: ligand present: no
Outline: (§1)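 Sorting into 6 bins by mCherry/BFP followed 48 h of incubation with or without ligand. The cells were enriched HEK293T libraries lentivirally bearing an mCherry reporter with the ribozyme switch and an EF1α-BFP marker, and bin genomic DNA was PCR-amplified, barcoded and sequenced on MiSeq. Fluorescence is the fitted normal mean of the bin counts. Means were fitted on log10(mCherry/BFP), scaled to five spiked-in control ribozymes.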

[2] = variants of: B1; assay: normalized RNA/DNA level without ligand (relative to sTRSVctl = 100) (log10 (% of sTRSVctl)); HEK293T; ligand: cyclic di-GMP (c-di-GMP-II aptamer); higher = less ribozyme self-cleavage, higher mRNA level; settings: reporter: mCherry (pCS4076), ligand present: no
Outline: (§2)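 Ribozyme switch library plasmids with mCherry reporters (eGFP in certain ligand experiments) went into HEK293T cells at 4 µg per 6-well well. Where ligand was used, it was applied 1 h before transfection, and total RNA was extracted with EDTA 72 h later for reverse transcription, amplification, barcoding and sequencing. RNA level is the RNA-to-DNA read ratio normalized to a spiked-in non-cleaving sequence or to the leading sequences, then scaled and log-transformed. Scaling was ×100 with log10, the leading set comprised 25 sequences, and the cutoff was ≥100 DNA reads.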

[3] = variants of: B1; assay: FACS-Seq fitted mean relative fluorescence mCherry/BFP with ligand (log10 relative fluorescence); HEK293T; ligand: cyclic di-GMP (c-di-GMP-II aptamer); ligand concentration (+) FACS-Seq: 1 mM; higher = higher reporter protein expression; settings: ligand present: yes
Outline: as §1

[4] = variants of: B1; assay: normalized RNA/DNA level with ligand (relative to sTRSVctl = 100) (log10 (% of sTRSVctl)); HEK293T; ligand: cyclic di-GMP (c-di-GMP-II aptamer); ligand concentration (+) RNA-Seq: 1 mM; higher = less ribozyme self-cleavage, higher mRNA level; settings: reporter: mCherry (pCS4076), ligand present: yes
Outline: as §2

Variant	FACS-Seq fitted mean (log10) [1]	normalized RNA/DNA level without ligand (log10) [2]	FACS-Seq fitted mean (log10) [3]	normalized RNA/DNA level with ligand (log10) [4]
ACUGGG	-0.467 ± 0.024	1.58 ± 0.07	-0.104 ± 0.015	1.69 ± 0.11
ACUGGA	-0.72 ± 0.0076	1.39 ± 0.091	-0.5113 ± 0.0047	1.59 ± 0.087
ACUGGU	-0.466 ± 0.02	1.52 ± 0.024	-0.166 ± 0.029	1.76 ± 0.079
CCGACA	-0.323 ± 0.017	1.56 ± 0.068	-0.142 ± 0.068	1.74 ± 0.11
UCGAGA	-0.546 ± 0.018	1.47 ± 0.0053	-0.217 ± 0.11	1.71 ± 0.16
UCGAGU	-0.395 ± 0.033	1.47 ± 0.066	-0.0571 ± 0.032	1.73 ± 0.11
UCGAGC	-0.085 ± 0.098	1.736 ± 0.017	0.204 ± 0.013	1.84 ± 0.1
ACCUAA	-0.281 ± 0.029	1.57 ± 0.053	0.102 ± 0.075	1.76 ± 0.056
ACCUAU	-0.223 ± 0.079	1.59 ± 0.055	-0.113 ± 0.043	1.79 ± 0.11
CCGAAG	-0.589 ± 0.031	1.31 ± 0.081	-0.24 ± 0.0033	1.51 ± 0.12
CCGAAA	-0.628 ± 0.032	1.31 ± 0.12	-0.282 ± 0.0032	1.53 ± 0.1
GCCGUG	-0.238 ± 0.056	1.6 ± 0.097	0.0457 ± 0.053	1.8 ± 0.06
CCGGAU	-0.339 ± 0.015	1.55 ± 0.074	-0.0202 ± 0.13	1.76 ± 0.1
CCGGAC	-0.253 ± 0.11	1.62 ± 0.034	-0.0326 ± 0.0056	1.75 ± 0.086
CCGGAA	-0.512 ± 0.023	1.28 ± 0.09	-0.209 ± 0.03	1.47 ± 0.12
GCGACG	-0.315 ± 0.099	1.55 ± 0.096	-0.216 ± 0.13	1.73 ± 0.076
UCGAUA	-0.515 ± 0.044	1.35 ± 0.17	-0.119 ± 0.11	1.51 ± 0.084
UCGAUU	-0.335 ± 0.14	1.55 ± 0.074	0.0883 ± 0.079	1.74 ± 0.17

Variant	FACS-Seq fitted mean (log10) [1]	normalized RNA/DNA level without ligand (log10) [2]	FACS-Seq fitted mean (log10) [3]	normalized RNA/DNA level with ligand (log10) [4]
CCUCAA	0.0135 ± 0.11	1.46 ± 0.1	0.263 ± 0.07	1.67 ± 0.066
CCUCAG	-0.325 ± 0.018	1.669 ± 0.003	-0.0311 ± 0.077	1.81 ± 0.14
GCUGCA	0.156 ± 0.0048	1.77 ± 0.025	0.255 ± 0.059	1.85 ± 0.089
GCUGCG	-1.43 ± 0.31	1.789 ± 0.016	-1.28 ± 0.14	1.87 ± 0.13
CCCUCC	-0.844 ± 0.018	1.78 ± 0.029	-0.75619 ± 0.00069	1.89 ± 0.045
CCCUCA	-0.416 ± 0.038	1.58 ± 0.039	-0.195 ± 0.06	1.73 ± 0.17
GCCGAC	-0.43 ± 0.062	1.48 ± 0.13	-0.145 ± 0.015	1.67 ± 0.089
GCCGAU	-0.47 ± 0.078	1.55 ± 0.034	-0.231 ± 0.064	1.74 ± 0.1
GCUCGU	-0.452 ± 0.016	1.692 ± 0.015	-0.0822 ± 0.049	1.83 ± 0.038
CCGCAC	-0.121 ± 0.13	1.6849 ± 0.0016	0.131 ± 0.16	1.85 ± 0.11
GCCGCU	-0.109 ± 0.1	1.72 ± 0.015	0.0767 ± 0.02	1.92 ± 0.09
GCUACG	0.0942 ± 0.14	1.58 ± 0.017	0.353 ± 0.045	1.72 ± 0.1
GCGGUU	-0.562 ± 0.021	1.6 ± 0.044	-0.254 ± 0.0055	1.75 ± 0.11
UCGCGA	-0.247 ± 0.071	1.668 ± 0.0022	0.0917 ± 0.061	1.8 ± 0.1
UCGCAA	-0.351 ± 0.038	1.47 ± 0.019	-0.0919 ± 0.063	1.69 ± 0.18
ACCUCC	0.0782 ± 0.15	1.78 ± 0.055	0.281 ± 0.037	1.86 ± 0.15
CCUACC	-0.57 ± 0.25	1.757 ± 0.0078	-0.577 ± 0.048	1.85 ± 0.053
ACGCGG	-0.429 ± 0.041	1.69 ± 0.034	-0.107 ± 0.078	1.8 ± 0.13

From the supplement of paper PMC6757056
